B1: EDARADD (parent)
chain: VEKVLRRWVDEEWPKRERGDPSRH

Variants of: B1
Assay: protein stability index of a GFP-peptide fusion (GPS, HEK-293T) (PSI 1-6); higher = more stable
Details: c terminus: a fixed tail appended
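Also: lentivirally expressed fusions sorted by FACS into six bins by GFP to DsRed ratio, PSI derived from sequencing read proportions per bin multiplied by bin number.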

Protein stability index, by site and new letter:
E2: L 1.39, W 2.05, C 2.3, A 2.61, T 2.24, S 2.46, I 1.72, M 1.96, Y 1.89, Q 2.51, K 1.24, R 2.53, D 2.9, V 1.63, H 2.37, F 1.45, P 2.94, N 3.23
L5: T 3.98, F 3.25, C 2.71, P 4.07, K 2.96, S 2.8, D 4.57, H 4.26, R 1.99, A 4.3, E 4.5, I 2.96, N 3.94, M 3.3, W 2.98, V 3.23, Y 2.34, G 4.19, Q 2.78
D10: C 2.69, F 2.81, A 2.53, G 3.39
R6: T 3.84, K 3.86, C 3.06, M 3.14, E 3.72, P 5.27, Y 3.13, I 2.47, N 3.94, Q 3.79, F 2.76, L 2.57, D 4.34, S 3.6, G 3.12, W 3.38, A 3.88
V4: A 2.89, W 3.53, S 4.21, L 2.2, T 3.08, N 4.2, P 3.71, F 1.97, C 2.62, K 3.06, Q 2.76, R 3.42, D 4.08, E 4.41, H 3.6, M 2.67, Y 2.5, I 2.69
W8: H 4.08, L 2.76, M 3.69, Y 3.12, P 4.71, C 4.03, S 4.97, E 4.22, R 4.13, T 4.06, D 4.56, K 4.43, A 3.98, N 5.25, Q 4.78, I 3.4, F 3.34, G 4.8
K3: A 2.78, V 2.09, C 3.38, Q 2.85, G 4.05, T 2.14, P 3.8, E 3.55, N 3.26, F 2.21, L 2.41, D 4.38, I 1.25, Y 2.77, W 1.36, S 3.01, H 5.03
R7: G 3.98, D 4.05, F 3.61, T 3.6, L 2.62, M 2.69, P 3.9, Y 2.7, Q 3.45, S 3.46, I 2.32, C 2.35, W 2.49, E 3.91, V 3.43, N 4.48, H 3.56, K 3.29, A 3.09
V9: D 4.36, S 4.07, R 3.48, Y 3.1, T 3.72, H 3.46, F 2.55, G 3.83, I 2.38, M 3.17, C 2.72, K 2.9, A 3.57, P 3.51, W 3.05, N 3.59, Q 3.31, E 4.17
V1: Y 2.56, I 2.2, T 2.91, E 4.19, M 2.95, L 2.19, S 2.39, K 2.85, F 1.98, H 3.42, G 3.61, Q 2.65, P 3.94, C 2.77, D 4.36, A 4.29, N 3.91, W 2.28, R 4.16
